System: T1, OhsR:C125S C125S (Corynebacterium glutamicum), ORF:a3d30e29
T1 sequence: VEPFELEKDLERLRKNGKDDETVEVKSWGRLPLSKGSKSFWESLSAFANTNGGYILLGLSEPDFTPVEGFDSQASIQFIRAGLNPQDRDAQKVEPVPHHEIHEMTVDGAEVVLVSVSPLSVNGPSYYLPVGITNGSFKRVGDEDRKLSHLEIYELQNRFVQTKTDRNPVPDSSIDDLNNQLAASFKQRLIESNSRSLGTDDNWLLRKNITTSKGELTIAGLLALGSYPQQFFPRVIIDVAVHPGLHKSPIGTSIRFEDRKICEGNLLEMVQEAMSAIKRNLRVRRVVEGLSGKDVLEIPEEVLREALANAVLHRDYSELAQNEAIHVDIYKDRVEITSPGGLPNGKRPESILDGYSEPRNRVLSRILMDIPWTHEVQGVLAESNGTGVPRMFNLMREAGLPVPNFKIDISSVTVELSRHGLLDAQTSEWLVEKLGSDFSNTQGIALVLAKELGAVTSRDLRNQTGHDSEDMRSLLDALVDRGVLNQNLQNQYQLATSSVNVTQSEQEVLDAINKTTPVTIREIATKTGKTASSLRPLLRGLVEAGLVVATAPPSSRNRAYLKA
Assay: EMSA
Details: EMSA: 20 mM Tris-HCl pH 7.4, 4 mM MgCl2, 100 mM NaCl, 10% glycerol, room temperature 30 min; 20 ng DNA, 0-4 ug OhsR; 6% native PAGE, 0.5x TBE, SYBR Green

CACCTTGTTGGTGGGCCGGGATTTTTGTTGTTTAGATTTTTGAAAGCACACTTTTGTCCCTTAACTAGTGCGTGTGTACATTCGACACCAAGATTTGGGCAATATGGTGCCCAAAATCAGGAAATCTTGCTGTCTAATGCACAACGGAAAACTGCTCACGGACGAACTAGTTGTAGCGAGCGTATTCTTTGTGTTCTCTC (double strand) [Pohr (ohr promoter, 200 bp)]
binding: no binding

Reference: publication PMC6306002
